Measured values published in doi:10.1101/2025.04.23.650334.

T1: GdFen1 (Giardia duodenalis, UniProt A8B672 1-361)
T1 sequence: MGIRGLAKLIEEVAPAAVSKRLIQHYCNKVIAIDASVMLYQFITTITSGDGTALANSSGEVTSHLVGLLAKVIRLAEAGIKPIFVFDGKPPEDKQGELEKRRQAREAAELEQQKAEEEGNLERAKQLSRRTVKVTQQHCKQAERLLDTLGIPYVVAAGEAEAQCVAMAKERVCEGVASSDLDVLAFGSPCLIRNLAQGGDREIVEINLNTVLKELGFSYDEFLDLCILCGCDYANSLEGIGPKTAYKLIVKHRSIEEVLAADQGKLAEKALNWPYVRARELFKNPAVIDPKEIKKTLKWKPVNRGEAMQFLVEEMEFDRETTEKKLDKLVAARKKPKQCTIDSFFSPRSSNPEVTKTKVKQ

B1: Flap probe (structured_DNA)
DNA 1: CGCGGATCCCACTACGCCGATTTTTTTTTTTTTTTTTTTTACGTATGCCACGAATTCGCG
DNA 2: CGCGAATTCGTGGCATACGTAAAAAAAAAAAAAAAAAAAAGAGATGCGAGTCTAGACCGG
DNA 3: CCGGTCTAGACTCGCATCTC
B2: Bubble probe (structured_DNA)
DNA 1: B1 DNA 1
DNA 2: CGCGAATTCGTGGCATACGTTTTTTTTTTTTTTTTTTTTTTCGGCGTAGTGGGATCCGCG

Target: T1, GdFen1
Assay: EMSA

Binder	binding result
B1	binds
B2	binds
